Blank lines part the entries; values can stand above or below the molecule they belong to.
Key:
[1] = target: GST fused p85α-CSH2 (C-terminal Src-homology 2 domain of p85α) (UniProt P27986); assay: pull-down; GST-CSH2 (~5 μg, E. coli expressed) incubated with equal amounts of in vitro translated TRβ1 or mutants, in the presence of T3; bound receptor detected by Western blot with anti-TRβ1; band intensities quantified with ImageJ
[2] = target: T1, GST fused p85α-CSH2 (C-terminal Src-homology 2 domain of p85α) (UniProt P27986 623-706); assay: as above; settings: one partner purified
T1 construct: C-terminal SH2 (CSH2) domain of the p85α regulatory subunit of PI3K; the limits 623-706 are told of the domain in the discussion, not in the methods of this assay; also called GST–CSH2; CSH2-conjugated to GST; source: E. coli expressed
T1 sequence (P27986 623-706): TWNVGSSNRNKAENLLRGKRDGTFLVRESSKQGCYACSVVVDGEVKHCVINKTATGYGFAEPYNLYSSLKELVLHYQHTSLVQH

Sequence of GST fused p85α-CSH2 (C-terminal Src-homology 2 domain of p85α) (UniProt P27986) (P27986 623-706): as above

fold association relative to TRβ1 [1]: 3 fold
Molecule: in vitro translated PV (from UniProt P10828 1-461) (receptor)

fold association relative to TRβ1 [2]: 3 fold
B1: in vitro translated AM (receptor, human, UniProt P10828 1-461, looked up)
chain: MTPNSMTENGLTAWDKPKHCPDREHDWKLVGMSEACLHRKSHSERRSTLKNEQSSPHLIQTTWTSSIFHLDHDDVNDQSVSSAQTFQTEEKKCKGYIPSYLDKDELCVVCGDKATGYHYRCITCEGCKGFFRRTIQKNLHPSYSCKYEGKCVIDKVTRNQCQECRFKKCIYVGMATDLVLDDSKRLAKRKLIEENREKRRREELQKSIGHKPEPTDEEWELIKTVTEAHVATNAQGSHWKQKRKFLPEDIGQAPIVNAPEGGKVDLEAFSHFTKIITPAITRVVDFAKKLPMFCELPCEDQIILLKGCCMEIMSLRAAVRYDPESETLTLNGEMAVTRGQLKNGGLGVVSDAIFDLGMSLSSFNLDDTEVALLQAVLLMSSDRPGLACVERIEKYQDSFLLAFEHYINYRKHHVTHFWPKLLMKVTDLRMIGACHCQPLPAHEGGMPTELFPPLFLEVFED
notes: source: in vitro translated (TNT T7 quick coupled kit, Promega)
